Changes are numbered by the printed parent chain.
T1: Spo0A DNA-binding domain (Spo0A145-247-His6) (UniProt P52938)
T1 sequence: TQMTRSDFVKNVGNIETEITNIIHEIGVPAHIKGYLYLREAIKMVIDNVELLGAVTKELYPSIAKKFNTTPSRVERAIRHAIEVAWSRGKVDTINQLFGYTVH

T2: Spo0A DNA-binding domain (Spo0A145-247-His6) (UniProt P52938 145-247)
T2 sequence: T1 sequence with I42M

B1: WT PspoIIE FP probe (dsDNA)
DNA 1: AAAACCGATTATGACAAAAAAAATTACTCC
DNA 2: GGAGTAATTTTTTTTGTCATAATCGGTTTT
B2: Me3* PspoIIE FP probe (dsDNA)
DNA 1: B1 DNA 1 with A19T
DNA 2: B1 DNA 2 with T12A

Legend:
[1] = biological target: T1, Spo0A DNA-binding domain (Spo0A145-247-His6); assay: EMSA; details: FP: 1 nM dsDNA, 50 mM Tris-HCl pH 8, 100 mM KCl, 2.5 mM MgCl2, 0.2 mM DTT, 10% glycerol, 2 µg salmon sperm DNA, 10 min, RT; EMSA: 20 fmol DNA, 10 mM Tris-HCl …
[2] = biological target: T2, Spo0A DNA-binding domain …; assay: fluorescence polarization; FP: 1 nM dsDNA, 50 mM Tris-HCl pH 8, 100 mM KCl, 2.5 mM MgCl2, 0.2 mM DTT, 10% glycerol, 2 µg salmon sperm DNA, 10 min, RT; EMSA: 20 fmol DNA, 10 mM Tris-HCl pH 7.6, 1 mM EDTA, 50 mM NaCl, 1 mM DTT, 5% glycerol, 30 min, 37 C; details: protein: recombinant; tags: C-terminal His6; label: 6FAM on strand 1 (5' primer); blunt

Molecule | binding [1] | binding result [2]
CCTCCTCTTTTGTTTATATTAAGAATTGTAACAAAGAGGAGTAATTTTATTTGTCATAATCGGTTTTAAAAATCAAAAAATATTAATACATTTTTTTTGACTTTTGACATATTAAGCCTTCCAAATTATCGTATTCACTTACGGTTATTTCTTCTATTTCTAATTTTTCCATTATTATATTCAATATTTTTACACCAGCAGTTATAATATCCGCACGTTTTTCTTGTAGCCCTTTTAAGTTCTTTTTATCAC (double strand) [Me3* PspoIIE EMSA fragment] | binds | –
CCTCCTCTTTTGTTTATATTAAGAATTGTAACAAAGAGGAGTAATTTTTTTTGTCATAATCGGTTTTAAAAATCAAAAAATATTAATACATTTTTTTTGACTTTTGACATATTAAGCCTTCCAAATTATCGTATTCACTTACGGTTATTTCTTCTATTTCTAATTTTTCCATTATTATATTCAATATTTTTACACCAGCAGTTATAATATCCGCACGTTTTTCTTGTAGCCCTTTTAAGTTCTTTTTATCAC (double strand) [WT PspoIIE EMSA fragment] | binds | –
B1 | – | binds
B2 | – | binds

Source: paper PMC13395437, “A single DNA methylation site regulates cell fate during Clostridioides difficile sporulation”
